B1: GNB5 (parent)
chain: YYPSGDAFASGSDDATCRLYDLRA

Variants of: B1
Test: protein stability index of a GFP-peptide fusion (GPS, HEK-293T) (PSI 1-6); higher = more stable
Settings: c terminus: a fixed tail appended
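Also: lentivirally expressed fusions sorted by FACS into six bins by GFP to DsRed ratio, PSI derived from sequencing read proportions per bin multiplied by bin number.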

Question: Which protein stability index does the source give for YYPSGDAFAWGSDDATCRLYDLRA here?
Answer: 2.23

Question: With YYPSGDAFAYGSDDATCRLYDLRA as the variant, how does the protein stability index read?
Answer: 2.4

Question: For YYPSGDAFASASDDATCRLYDLRA, which protein stability index is on record?
Answer: 2.23

Question: Which protein stability index does the source give for YYPSGDAFASCSDDATCRLYDLRA here?
Answer: 2.09

Question: Which protein stability index does the source give for YYPSGDAFASDSDDATCRLYDLRA here?
Answer: 2.74

Question: With YYPSGDAFASESDDATCRLYDLRA as the variant, how does the protein stability index read?
Answer: 2.81

Question: With YYPSGDAFASFSDDATCRLYDLRA as the variant, how does the protein stability index read?
Answer: 1.99

Question: For YYPSGDAFASHSDDATCRLYDLRA, which protein stability index is on record?
Answer: 2.44

Question: With YYPSGDAFASISDDATCRLYDLRA as the variant, how does the protein stability index read?
Answer: 1.89

Question: Which protein stability index does the source give for YYPSGDAFASKSDDATCRLYDLRA here?
Answer: 1.94

Question: For YYPSGDAFASLSDDATCRLYDLRA, which protein stability index is on record?
Answer: 2.89

Question: For YYPSGDAFASMSDDATCRLYDLRA, which protein stability index is on record?
Answer: 1.66

Question: For YYPSGDAFASNSDDATCRLYDLRA, which protein stability index is on record?
Answer: 2.64

Question: With YYPSGDAFASPSDDATCRLYDLRA as the variant, how does the protein stability index read?
Answer: 2.31

Question: With YYPSGDAFASQSDDATCRLYDLRA as the variant, how does the protein stability index read?
Answer: 2.14

Question: With YYPSGDAFASRSDDATCRLYDLRA as the variant, how does the protein stability index read?
Answer: 1.83

Question: For YYPSGDAFASSSDDATCRLYDLRA, which protein stability index is on record?
Answer: 2.08

Question: For YYPSGDAFASTSDDATCRLYDLRA, which protein stability index is on record?
Answer: 2.28

Question: Which protein stability index does the source give for YYPSGDAFASVSDDATCRLYDLRA here?
Answer: 1.94

Question: Which protein stability index does the source give for YYPSGDAFASWSDDATCRLYDLRA here?
Answer: 2.11

Question: Which protein stability index does the source give for YYPSGDAFASYSDDATCRLYDLRA here?
Answer: 1.98

Question: Which protein stability index does the source give for YYPSGDAFASGADDATCRLYDLRA here?
Answer: 2.76

Question: For YYPSGDAFASGCDDATCRLYDLRA, which protein stability index is on record?
Answer: 2.98

Question: Which protein stability index does the source give for YYPSGDAFASGDDDATCRLYDLRA here?
Answer: 3.23

Question: Which protein stability index does the source give for YYPSGDAFASGEDDATCRLYDLRA here?
Answer: 2.89

Question: For YYPSGDAFASGFDDATCRLYDLRA, which protein stability index is on record?
Answer: 2.41

Question: For YYPSGDAFASGGDDATCRLYDLRA, which protein stability index is on record?
Answer: 1.74

Question: Which protein stability index does the source give for YYPSGDAFASGHDDATCRLYDLRA here?
Answer: 2.92

Question: Which protein stability index does the source give for YYPSGDAFASGIDDATCRLYDLRA here?
Answer: 2.24

Question: For YYPSGDAFASGKDDATCRLYDLRA, which protein stability index is on record?
Answer: 2.21

Question: Which protein stability index does the source give for YYPSGDAFASGLDDATCRLYDLRA here?
Answer: 2.16

Question: For YYPSGDAFASGMDDATCRLYDLRA, which protein stability index is on record?
Answer: 2.13

Question: With YYPSGDAFASGNDDATCRLYDLRA as the variant, how does the protein stability index read?
Answer: 2.41

Question: With YYPSGDAFASGPDDATCRLYDLRA as the variant, how does the protein stability index read?
Answer: 2.17

Question: With YYPSGDAFASGQDDATCRLYDLRA as the variant, how does the protein stability index read?
Answer: 2.08

Question: With YYPSGDAFASGRDDATCRLYDLRA as the variant, how does the protein stability index read?
Answer: 2.17

Question: For YYPSGDAFASGTDDATCRLYDLRA, which protein stability index is on record?
Answer: 2.79

Question: Which protein stability index does the source give for YYPSGDAFASGVDDATCRLYDLRA here?
Answer: 2.04

Question: Which protein stability index does the source give for YYPSGDAFASGWDDATCRLYDLRA here?
Answer: 2.74

Question: Which protein stability index does the source give for YYPSGDAFASGYDDATCRLYDLRA here?
Answer: 2.98

Question: For YYPSGDAFASGSADATCRLYDLRA, which protein stability index is on record?
Answer: 1.86

Question: Which protein stability index does the source give for YYPSGDAFASGSCDATCRLYDLRA here?
Answer: 1.56

Question: Which protein stability index does the source give for YYPSGDAFASGSEDATCRLYDLRA here?
Answer: 2.27

Question: With YYPSGDAFASGSFDATCRLYDLRA as the variant, how does the protein stability index read?
Answer: 1.63

Question: With YYPSGDAFASGSGDATCRLYDLRA as the variant, how does the protein stability index read?
Answer: 1.89

Question: Which protein stability index does the source give for YYPSGDAFASGSHDATCRLYDLRA here?
Answer: 2.23

Question: With YYPSGDAFASGSIDATCRLYDLRA as the variant, how does the protein stability index read?
Answer: 2.27

Question: With YYPSGDAFASGSKDATCRLYDLRA as the variant, how does the protein stability index read?
Answer: 2.25

Question: For YYPSGDAFASGSLDATCRLYDLRA, which protein stability index is on record?
Answer: 1.93

Question: Which protein stability index does the source give for YYPSGDAFASGSMDATCRLYDLRA here?
Answer: 1.66

Question: For YYPSGDAFASGSNDATCRLYDLRA, which protein stability index is on record?
Answer: 2.38

Question: For YYPSGDAFASGSPDATCRLYDLRA, which protein stability index is on record?
Answer: 2.19

Question: With YYPSGDAFASGSQDATCRLYDLRA as the variant, how does the protein stability index read?
Answer: 2.2

Question: For YYPSGDAFASGSRDATCRLYDLRA, which protein stability index is on record?
Answer: 1.88

Question: For YYPSGDAFASGSSDATCRLYDLRA, which protein stability index is on record?
Answer: 2.28

Question: Which protein stability index does the source give for YYPSGDAFASGSTDATCRLYDLRA here?
Answer: 1.76

Question: Which protein stability index does the source give for YYPSGDAFASGSVDATCRLYDLRA here?
Answer: 1.78

Question: For YYPSGDAFASGSWDATCRLYDLRA, which protein stability index is on record?
Answer: 1.65

Question: With YYPSGDAFASGSYDATCRLYDLRA as the variant, how does the protein stability index read?
Answer: 2.11

Question: For YYPSGDAFASGSDAATCRLYDLRA, which protein stability index is on record?
Answer: 1.91

Question: For YYPSGDAFASGSDCATCRLYDLRA, which protein stability index is on record?
Answer: 2.39

Question: With YYPSGDAFASGSDEATCRLYDLRA as the variant, how does the protein stability index read?
Answer: 2.55

Question: With YYPSGDAFASGSDFATCRLYDLRA as the variant, how does the protein stability index read?
Answer: 2.12

Question: With YYPSGDAFASGSDGATCRLYDLRA as the variant, how does the protein stability index read?
Answer: 2.52

Question: Which protein stability index does the source give for YYPSGDAFASGSDHATCRLYDLRA here?
Answer: 2.2

Question: With YYPSGDAFASGSDIATCRLYDLRA as the variant, how does the protein stability index read?
Answer: 2.65

Question: For YYPSGDAFASGSDKATCRLYDLRA, which protein stability index is on record?
Answer: 1.93

Question: With YYPSGDAFASGSDLATCRLYDLRA as the variant, how does the protein stability index read?
Answer: 1.92

Question: Which protein stability index does the source give for YYPSGDAFASGSDMATCRLYDLRA here?
Answer: 2.21

Question: Which protein stability index does the source give for YYPSGDAFASGSDNATCRLYDLRA here?
Answer: 1.98

Question: Which protein stability index does the source give for YYPSGDAFASGSDPATCRLYDLRA here?
Answer: 2.12

Question: With YYPSGDAFASGSDQATCRLYDLRA as the variant, how does the protein stability index read?
Answer: 2.27

Question: For YYPSGDAFASGSDRATCRLYDLRA, which protein stability index is on record?
Answer: 1.9

Question: With YYPSGDAFASGSDSATCRLYDLRA as the variant, how does the protein stability index read?
Answer: 1.94

Question: With YYPSGDAFASGSDTATCRLYDLRA as the variant, how does the protein stability index read?
Answer: 2.02

Question: For YYPSGDAFASGSDVATCRLYDLRA, which protein stability index is on record?
Answer: 2.27

Question: For YYPSGDAFASGSDWATCRLYDLRA, which protein stability index is on record?
Answer: 1.22

Question: For YYPSGDAFASGSDYATCRLYDLRA, which protein stability index is on record?
Answer: 1.58

Question: Which protein stability index does the source give for YYPSGDAFASGSDDCTCRLYDLRA here?
Answer: 1.98

Question: Which protein stability index does the source give for YYPSGDAFASGSDDDTCRLYDLRA here?
Answer: 3.4

Question: For YYPSGDAFASGSDDETCRLYDLRA, which protein stability index is on record?
Answer: 2.75

Question: With YYPSGDAFASGSDDFTCRLYDLRA as the variant, how does the protein stability index read?
Answer: 2.1

Question: Which protein stability index does the source give for YYPSGDAFASGSDDGTCRLYDLRA here?
Answer: 2.87

Question: Which protein stability index does the source give for YYPSGDAFASGSDDHTCRLYDLRA here?
Answer: 2.05

Question: Which protein stability index does the source give for YYPSGDAFASGSDDITCRLYDLRA here?
Answer: 1.97

Question: For YYPSGDAFASGSDDKTCRLYDLRA, which protein stability index is on record?
Answer: 2.35

Question: With YYPSGDAFASGSDDLTCRLYDLRA as the variant, how does the protein stability index read?
Answer: 2.15

Question: Which protein stability index does the source give for YYPSGDAFASGSDDMTCRLYDLRA here?
Answer: 2.36

Question: Which protein stability index does the source give for YYPSGDAFASGSDDNTCRLYDLRA here?
Answer: 2.61

Question: For YYPSGDAFASGSDDPTCRLYDLRA, which protein stability index is on record?
Answer: 2.63

Question: With YYPSGDAFASGSDDQTCRLYDLRA as the variant, how does the protein stability index read?
Answer: 2.62

Question: With YYPSGDAFASGSDDRTCRLYDLRA as the variant, how does the protein stability index read?
Answer: 2.24

Question: With YYPSGDAFASGSDDSTCRLYDLRA as the variant, how does the protein stability index read?
Answer: 2.25

Question: With YYPSGDAFASGSDDTTCRLYDLRA as the variant, how does the protein stability index read?
Answer: 2.26

— the supplement of paper PMC10567573
